From the RNAGym collection of RNA variant scans (doi:10.7554/elife.80360)

B1: CPEB3 Ribozyme (parent)
chain: GGGGGCCACAGCAGAAGCGUUCACGUCGCGGCCCCUGUCAGAUUCUGGUGAAUCUGCGAAUUCUGCUGU

Variants of: B1
Assay: self-cleavage, relative activity (ratio to wild type); higher = more cleavage; co-transcriptional

Variant	self-cleavage
A13U C34A	0.704
A13U U62A	0.438
G14A C45G	0.638
G14A C45U	0.778
G14A C45A	0.612
G14A U62A	0.554
G14A U62C	0.338
G14A U62G	0.605
A13U G30U	0.228
A13U G30C	0.393
A13U G30A	0.487
G14A C18U	0.179
G14A C18A	0.163
G14A C18G	0.208
G14A G56C	0.261
G14A G56A	0.466
G14A G56U	0.321
G14C C29G	0.172
G14C C29U	0.163
G14C C29A	0.0734
G14A C57A	0.264
G14A C57G	0.258
G14A A52U	0.643
G14A A52C	0.688

Variant	self-cleavage
G14A C22G	0.166
G14A A16U	0.353
G14A A16C	0.136
G14A A16G	0.463
G14A U36A	0.0973
G14A U36C	0.442
G14C U46C	0.48
G14C U46A	0.651
G14C U46G	0.599
G14U A42U	0.425
G14U A42C	0.523
G14C U26G	0.256
G14C U26C	0.327
A13U C57G	0.226
A13U C57U	0.308
G14C G65C	0.231
G14C G65A	0.291
G14A G41A	0.196
A13U C63A	0.317
A13U C63G	0.294
G14A A40G	0.495
G14A A40C	0.234
A13U U44C	0.345
A13U U44G	0.575

Variant	self-cleavage
A13U G58A	0.758
G14A U49C	0.646
G14C G68C	0.607
G14C G68U	0.64
G14C G68A	0.704
G14C G41C	0.192
G14C G41U	0.231
G14C G41A	0.16
G14U C22A	0.15
G14U C22U	0.15
G14A G25A	0.156
G14A G25C	0.105
G14A G25U	0.0915
A13U U20G	0.185
A13U U20C	0.145
G14C U61A	0.346
G14C U61G	0.266
A13U U43A	0.31
A13U U43C	0.678
A13U C54A	0.29
A13U C54U	0.729
G14U A16U	0.363
G14U A16C	0.123
G14C C39A	0.225

Variant	self-cleavage
G14C C39G	0.248
G14C C39U	0.286
G14A U20G	0.124
G14A U20A	0.132
A13U U46C	0.873
A13U U46G	0.905
A13U U46A	0.942
A13U G17U	0.163
A13U G17A	0.102
G14C U36C	0.37
G14C U36G	0.19
G14C U36A	0.109
G14A U38A	0.478
G14C G50U	0.618
G14C G50A	0.613
G14C G50C	0.405
G14A U67C	0.583
G14A U67G	0.682
G14A U67A	0.635
G14C C27A	0.146
G14C C27G	0.159
G14C C27U	0.14
A13U U69C	1
A13U U69A	0.89

Variant	self-cleavage
A13U U69G	0.961
G14C U62A	0.394
G14C U62G	0.368
G14C U62C	0.352
A13U C66A	0.323
A13U C66U	0.583
G14C U64G	0.546
G14C U64A	0.432
G14C U64C	0.283
G14A G68C	0.756
G14C G25A	0.142
G14C G25C	0.167
G14C G25U	0.0786
G14A A51C	0.486
G14A A51U	0.75
G14C A59C	0.262
G14C A59U	0.263
G14C G56C	0.24
G14C G56U	0.236
G14A A42C	0.343
G14U A15G	0.843
A13U G41A	0.263
A13U G41C	0.247
G14C U43G	0.246

Variant	self-cleavage
G14A G28C	0.146
G14A A15C	0.305
G14C U55A	0.22
G14C U55C	0.271
G14A A60G	0.358
G14A A60U	0.23
G14A A60C	0.28
G14A U46C	0.709
G14A U46G	0.844
G14U A23U	0.986
G14U A23G	0.452
G14U A23C	0.7
G14C C57A	0.325
G14C C57U	0.28
G14C A51C	0.337
G14C A51G	0.666
G14U A60G	0.4
A13U G68A	0.903
A13U G68U	0.886
A13U G68C	0.841
A13U G37C	0.186
A13U G37U	0.196
G14C U67A	0.468
G14C U67G	0.549

Variant	self-cleavage
G14C U67C	0.443
A13U G25A	0.168
G14C C18G	0.101
G14A G30A	0.235
A13U G48C	0.872
A13U G48U	0.916
G14U A51C	0.61
G14U A51G	0.842
G14A G47C	0.827
G14A G47U	0.889
A13U G56C	0.31
A13U G56A	0.688
A13U U21G	0.173
A13U U21C	0.691
A13U U21A	0.785
G14C G37A	0.151
G14C G37U	0.183
G14C G37C	0.127
G14A U26A	0.346
G14C G28A	0.154
G14C G28U	0.148
G14C G28C	0.154
G14A C35U	0.668
